Data from patent US20220340687A1.

Target: high affinity IgE receptor (FcεR1) (human) (UniProt P12319)
Assay: flow cytometry of purified human pDCs, mean over all assayed donors

Chain of human immunoglobulin E (IgE) (P01854 other isoform, or with tags, fused parts or gaps): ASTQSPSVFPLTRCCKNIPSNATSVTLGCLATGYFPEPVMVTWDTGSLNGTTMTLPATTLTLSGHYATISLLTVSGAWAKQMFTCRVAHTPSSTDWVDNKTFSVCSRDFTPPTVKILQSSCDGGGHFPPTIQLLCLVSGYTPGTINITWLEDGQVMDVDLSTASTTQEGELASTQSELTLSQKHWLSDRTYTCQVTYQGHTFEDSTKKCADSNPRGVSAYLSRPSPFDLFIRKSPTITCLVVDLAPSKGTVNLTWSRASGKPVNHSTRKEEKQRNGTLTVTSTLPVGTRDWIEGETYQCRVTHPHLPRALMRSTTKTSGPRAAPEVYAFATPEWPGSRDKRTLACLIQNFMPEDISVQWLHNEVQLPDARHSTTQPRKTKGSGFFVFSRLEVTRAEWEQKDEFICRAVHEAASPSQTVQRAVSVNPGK
Chain of high affinity IgE receptor (FcεR1) (human) (P12319 26-257): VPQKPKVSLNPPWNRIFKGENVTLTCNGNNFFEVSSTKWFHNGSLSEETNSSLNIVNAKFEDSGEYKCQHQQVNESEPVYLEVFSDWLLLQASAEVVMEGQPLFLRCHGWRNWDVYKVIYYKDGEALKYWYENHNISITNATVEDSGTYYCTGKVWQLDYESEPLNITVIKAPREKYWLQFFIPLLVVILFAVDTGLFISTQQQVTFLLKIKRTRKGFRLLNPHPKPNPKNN

percentage of pDCs displaying IgE bound to FcεR1: 45.7%
Substance: human immunoglobulin E (IgE) (from UniProt P01854 1-428) (antibody)
